# Measured values reported in patent US20240041922A1, “METHODS AND COMPOSITIONS” (Monash University, priority 2020, published 2024).
# Target: zebrafish Ccr5 (Ccr5-like, on pax3a+ muscle stem cells of larval zebrafish) (zebrafish)
# Test: cell-based or functional assay
substance,measurement,value
recombinant murine CCL8/MCP-2 (PeproTech) (from UniProt Q9Z121 24-97) (ligand),cell proliferation external to the site of injury in larval zebrafish (EdU),43%
same,wound site proliferation in larval zebrafish (EdU),28.3%
